The assay addresses Protein phosphatase 1 (PP1) (UniProt P62136). Put plainly: co-IP.

In publication PMC5746516 one finds interaction with PP1 by co-IP densitometry, percent of wild type data, which are given here for two molecules.

Sequence of UniProt P62136 (P62136 whole entry): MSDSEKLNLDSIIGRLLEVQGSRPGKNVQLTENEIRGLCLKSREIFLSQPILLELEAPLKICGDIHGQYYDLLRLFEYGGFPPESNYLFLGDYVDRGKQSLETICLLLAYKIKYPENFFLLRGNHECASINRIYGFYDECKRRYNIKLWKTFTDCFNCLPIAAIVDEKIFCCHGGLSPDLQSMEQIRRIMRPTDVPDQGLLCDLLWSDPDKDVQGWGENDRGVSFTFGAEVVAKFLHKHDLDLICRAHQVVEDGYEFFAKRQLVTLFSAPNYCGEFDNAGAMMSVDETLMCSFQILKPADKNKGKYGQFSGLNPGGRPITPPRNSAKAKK

B1: NBCe1-B PP1-binding consensus residue deletion mutant (deletion of amino acids 922-927), GFP-tagged (natural protein)
chain: MEDEAVLDRGASFLKHVCDEEEVEGHHTIYIGVHVPKSYRRRRRHKRKTGHKEKKEKERISENYSDKSDIENADESSSSILKPLISPAAERIRFILGEEDDSPAPPQLFTELDELLAVDGQEMEWKETARWIKFEEKVEQGGERWSKPHVATLSLHSLFELRTCMEKGSIMLDREASSLPQLVEMIVDHQIETGLLKPELKDKVTYTLLRKHRHQTKKSNLRSLADIGKTVSSASRMFTNPDNGSPAMTHRNLTSSSLNDISDKPEKDQLKNKFMKKLPRDAEASNVLVGEVDFLDTPFIAFVRLQQAVMLGALTEVPVPTRFLFILLGPKGKAKSYHEIGRAIATLMSDEVFHDIAYKAKDRHDLIAGIDEFLDEVIVLPPGEWDPAIRIEPPKSLPSSDKRKNMYSGGENVQMNGDTPHDGGHGGGGHGDCEELQRTGRFCGGLIKDIKRKAPFFASDFYDALNIQALSAILFIYLATVTNAITFGGLLGDATDNMQGVLESFLGTAVSGAIFCLFAGQPLTILSSTGPVLVFERLLFNFSKDNNFDYLEFRLWIGLWSAFLCLILVATDASFLVQYFTRFTEEGFSSLISFIFIYDAFKKMIKLADYYPINSNFKVGYNTLFSCTCVPPDPANISISNDTTLAPEYLPTMSSTDMYHNTTFDWAFLSKKECSKYGGNLVGNNCNFVPDITLMSFILFLGTYTSSMALKKFKTSPYFPTTARKLISDFAIILSILIFCVIDALVGVDTPKLIVPSEFKPTSPNRGWFVPPFGENPWWVCLAAAIPALLVTILIFMDQQITAVIVNRKEHKLKKGAGYHLDLFWVAILMVICSLMALPWYVAATVISIAHIDSLKMETETSAPGEQPKFLGVREQRVTGTLVFILTGLSVFMAPILKFIPMPVLYGVFLYMGVASLNGVQLLLMPLKHQPDFIYLRHVPLRRVHLFTFLQVLCLALLWILKSTVAAIIFPVMILALVAVRKGMDYLFSQHDLSFLDDVIPEKDKKKKEDEKKKKKKKGSLDSDNDDSDCPYSEKVPSIKIPMDIMEQQPFLSDSKPSDRERSPTFLERHTSC
Regarding B1, the interaction with PP1 by co-IP densitometry, percent of wild type was found to be 18.2%.

B2: NBCe1-B 3-point mutant (F922A, R925A, and K927A), GFP-tagged (natural protein)
chain: MEDEAVLDRGASFLKHVCDEEEVEGHHTIYIGVHVPKSYRRRRRHKRKTGHKEKKEKERISENYSDKSDIENADESSSSILKPLISPAAERIRFILGEEDDSPAPPQLFTELDELLAVDGQEMEWKETARWIKFEEKVEQGGERWSKPHVATLSLHSLFELRTCMEKGSIMLDREASSLPQLVEMIVDHQIETGLLKPELKDKVTYTLLRKHRHQTKKSNLRSLADIGKTVSSASRMFTNPDNGSPAMTHRNLTSSSLNDISDKPEKDQLKNKFMKKLPRDAEASNVLVGEVDFLDTPFIAFVRLQQAVMLGALTEVPVPTRFLFILLGPKGKAKSYHEIGRAIATLMSDEVFHDIAYKAKDRHDLIAGIDEFLDEVIVLPPGEWDPAIRIEPPKSLPSSDKRKNMYSGGENVQMNGDTPHDGGHGGGGHGDCEELQRTGRFCGGLIKDIKRKAPFFASDFYDALNIQALSAILFIYLATVTNAITFGGLLGDATDNMQGVLESFLGTAVSGAIFCLFAGQPLTILSSTGPVLVFERLLFNFSKDNNFDYLEFRLWIGLWSAFLCLILVATDASFLVQYFTRFTEEGFSSLISFIFIYDAFKKMIKLADYYPINSNFKVGYNTLFSCTCVPPDPANISISNDTTLAPEYLPTMSSTDMYHNTTFDWAFLSKKECSKYGGNLVGNNCNFVPDITLMSFILFLGTYTSSMALKKFKTSPYFPTTARKLISDFAIILSILIFCVIDALVGVDTPKLIVPSEFKPTSPNRGWFVPPFGENPWWVCLAAAIPALLVTILIFMDQQITAVIVNRKEHKLKKGAGYHLDLFWVAILMVICSLMALPWYVAATVISIAHIDSLKMETETSAPGEQPKFLGVREQRVTGTLVFILTGLSVFMAPILKFIPMPVLYGVFLYMGVASLNGVQAMDALALLLMPLKHQPDFIYLRHVPLRRVHLFTFLQVLCLALLWILKSTVAAIIFPVMILALVAVRKGMDYLFSQHDLSFLDDVIPEKDKKKKEDEKKKKKKKGSLDSDNDDSDCPYSEKVPSIKIPMDIMEQQPFLSDSKPSDRERSPTFLERHTSC
Molecule B2 showed an interaction with PP1 by co-IP densitometry, percent of wild type of 28.9%.
